Test results reported in US20130281922A1 (KANCERA, published 2013).

Target: T1, human ROR1 on cells (human, UniProt Q01973 30-937)
T1 construct: whole, on cells
Assay: Scatchard plot of 125I-labelled 009-G03 binding to RPMI-8226 cells, 2.5 h on ice
Description: Antibody was labelled with ¹²⁵I using free Iodine and test tubes pre-coated with the oxidant reagent Iodogen (1,3,4,6-tetrachloro-3α,6α-diphenylglycoluri, Thermo scientific), according to manufactures instruction. Briefly 200 μg of antibody was labeled for 10 minutes in PBS and free iodine were removed using a small disposable desalting columns (NAP 5, GE Healthcare Life science). […] 0.5×10⁶ cells were incubated for 2.5 h on ice with different concentrations of ¹²⁵I-labelled 009-G03 antibody. Free nonbinding antibody (F) was separated from cell bound antibody (B) by centrifugation through a 40% Ficoll-cushion and samples were analysed in a gamma counter (FIG. 29).

T1 sequence (Q01973 30-937): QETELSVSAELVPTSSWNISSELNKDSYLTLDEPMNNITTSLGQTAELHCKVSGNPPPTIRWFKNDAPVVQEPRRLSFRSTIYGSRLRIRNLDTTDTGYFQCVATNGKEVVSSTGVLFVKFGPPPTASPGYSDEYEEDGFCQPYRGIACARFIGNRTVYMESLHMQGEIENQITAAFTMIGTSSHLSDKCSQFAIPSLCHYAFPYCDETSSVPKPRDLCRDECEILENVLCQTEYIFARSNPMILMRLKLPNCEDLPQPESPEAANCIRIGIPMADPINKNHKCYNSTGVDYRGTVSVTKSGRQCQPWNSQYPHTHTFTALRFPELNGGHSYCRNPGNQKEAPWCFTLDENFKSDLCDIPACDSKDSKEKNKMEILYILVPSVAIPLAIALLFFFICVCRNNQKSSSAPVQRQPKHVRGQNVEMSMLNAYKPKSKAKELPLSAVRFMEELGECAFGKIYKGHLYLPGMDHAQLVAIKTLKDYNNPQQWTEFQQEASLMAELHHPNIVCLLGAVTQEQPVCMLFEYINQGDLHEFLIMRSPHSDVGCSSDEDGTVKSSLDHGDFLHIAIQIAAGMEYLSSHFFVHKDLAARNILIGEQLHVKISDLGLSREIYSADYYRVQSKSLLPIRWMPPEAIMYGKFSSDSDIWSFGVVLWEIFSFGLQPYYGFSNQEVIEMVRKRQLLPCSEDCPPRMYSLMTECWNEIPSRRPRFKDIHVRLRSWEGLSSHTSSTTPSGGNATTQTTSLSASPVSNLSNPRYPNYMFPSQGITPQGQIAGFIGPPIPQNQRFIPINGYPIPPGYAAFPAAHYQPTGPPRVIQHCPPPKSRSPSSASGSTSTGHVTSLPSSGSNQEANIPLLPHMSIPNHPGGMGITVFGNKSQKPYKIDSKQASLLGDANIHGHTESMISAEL

B1: ROR1-009-G03 (antibody, V domains shown)
VH: EVQLLESGGGLVQPGGSLRLSCAASGFTFSDYYMSWIRQAPGKGLEWVSAISGSGGSTYYADSVKGRFTISRDNSKNTLYLQMNSLRAEDTAVYYCAKEDWEGASFDYWGQGTLVTVSS
VL: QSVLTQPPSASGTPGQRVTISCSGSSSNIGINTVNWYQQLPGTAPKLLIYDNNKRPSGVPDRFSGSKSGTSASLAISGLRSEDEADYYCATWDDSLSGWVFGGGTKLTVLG
notes: also called ROR 009 G03; ROR1 specific mAb 009-G03
  Kd: 1 nM
